{"source": "paper doi:10.1101/2024.05.28.596221", "target": "YjfP (K. pneumoniae)", "assay": "crystal structure", "data": [{"substance": "YjfP (enzyme)", "values": [{"measurement": "stoichiometry N", "result": 2}]}]}
